Biological target: GST-DLG1 PDZ domain fusion protein (human homolog of Drosophila discs large protein AA275-477; PDZ domains 1-2 of 3) (human) [GST: P08515]
Assay: variant of G assay: 100 µM unlabeled 8-mer with 20 µM biotin-labeled AA2L CLASP-2 peptide on GST-DLG1

Chain of GST-DLG1 PDZ domain fusion protein (human homolog of Drosophila discs large protein AA275-477; PDZ domains 1-2 of 3) (human) [GST: P08515] (P08515 1-218, tags or fused parts left off): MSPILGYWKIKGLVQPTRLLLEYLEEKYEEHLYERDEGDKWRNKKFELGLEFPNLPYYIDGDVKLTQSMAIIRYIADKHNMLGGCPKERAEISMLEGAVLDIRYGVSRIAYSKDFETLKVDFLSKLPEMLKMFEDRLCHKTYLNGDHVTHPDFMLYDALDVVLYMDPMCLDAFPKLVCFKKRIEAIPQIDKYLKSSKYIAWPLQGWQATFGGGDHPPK

- percent inhibition: > 50%
Substance: eight amino acid CLASP-2 peptide MTSSSSVV (unlabeled competitor)
